{"source": "paper PMC12862363", "about": "“AURKB-driven dissolution of CIZ1–RNA assemblies from the inactive X chromosome in mitosis” (Nucleic Acids Research, 2026)", "key": {"C179DDD (Homo sapiens)": {"tested_on": "C179DDD (Homo sapiens)", "experiment": "EMSA", "details": "0.66 nM RNA; yeast tRNA 0.1 mg/ml; 10 mM Tris-HCl pH 7, 30 mM NaCl, 2.5 mM MgCl2, 0.1% IGEPAL CA-630, 0.1 mg/ml yeast tRNA, 1.5% RNaseOUT, 0.2 mM EDTA, 0.2 mM DTT, 30 C 20 min; 0.8% agarose/TBE …"}, "C179Δtail (Homo sapiens)": {"tested_on": "C179Δtail (Homo sapiens)", "experiment": "EMSA", "details": "0.66 nM RNA; yeast tRNA 0.1 mg/ml; 10 mM Tris-HCl pH 7, 30 mM NaCl, 2.5 mM MgCl2, 0.1% IGEPAL CA-630, 0.1 mg/ml yeast tRNA, 1.5% RNaseOUT, 0.2 mM EDTA, 0.2 mM DTT, 30 C 20 min; 0.8% agarose/TBE …"}}}
{"substance": "Xist repeat E RNA probe", "values": [{"measurement": "binding signal (% probe shifted at 5 µM protein)", "setting": "C179DDD (Homo sapiens)", "value": 54}, {"measurement": "binding signal (% probe shifted at 5 µM protein)", "setting": "C179Δtail (Homo sapiens)", "value": 2}]}
